Results as given in paper PMC7835349 (Communications Biology, 2021).

Test: In vitro release of AZD4320 from dendrimer conjugates in PBS pH 7.4, 37 °C
Settings: PBS 37 °C
Method: In vitro release half-life was calculated by least squares fitting to a 1st order release model.
AZD4320 release kinetics were determined in vitro under physiological conditions.
Nanoparticles were suspended in phosphate buffered saline (PBS) pH7.4 or rat plasma with 5%
HEPES in HPLC vials and sample temperature maintained to 37 °C using a water bath with
continuous stirring of the sample provided by iChem explorer unit. Periodically, 5-10 µL of
sample was injected onto the column (Acquity UPLC BEH shield RP18 1.7 µm, 4.6 x 30 mm,
Waters), bracketed by DMA to re-dissolve any precipitated AZD4320. The percent release was
calculated by comparing unconjugated AZD4320 peak area to total unconjugated + dendrimer-
conjugated AZD4320 peak areas. The half-life was calculated by least squares fitting to a 1st

AZD4320-MIDA-PEG2100 [AZD0466]
Cummulative Release % (0.75 h, Replicate 1): 2.01%
Cummulative Release % (0.90 h, Replicate 2): 2.72%
Cummulative Release % (1.05 h, Replicate 3): 2.87%
Cummulative Release % (1.67 h, Replicate 1): 3.95%
Cummulative Release % (1.82 h, Replicate 2): 4.63%
Cummulative Release % (1.97 h, Replicate 3): 5.12%
Cummulative Release % (2.60 h, Replicate 1): 6.37%
Cummulative Release % (2.75 h, Replicate 2): 7.07%
Cummulative Release % (2.90 h, Replicate 3): 7.57%
Cummulative Release % (3.52 h, Replicate 1): 8.48%
Cummulative Release % (3.67 h, Replicate 2): 9.50%
Cummulative Release % (3.83 h, Replicate 3): 9.95%
Cummulative Release % (4.45 h, Replicate 1): 10.66%
Cummulative Release % (4.60 h, Replicate 2): 11.87%
Cummulative Release % (4.75 h, Replicate 3): 12.24%
Cummulative Release % (5.37 h, Replicate 1): 12.82%
Cummulative Release % (5.52 h, Replicate 2): 13.72%
Cummulative Release % (5.68 h, Replicate 3): 14.33%
Cummulative Release % (6.30 h, Replicate 1): 15.04%
Cummulative Release % (6.45 h, Replicate 2): 16.29%
Cummulative Release % (6.60 h, Replicate 3): 15.86%
Cummulative Release % (7.22 h, Replicate 1): 15.94%
Cummulative Release % (7.37 h, Replicate 2): 17.47%
Cummulative Release % (7.53 h, Replicate 3): 17.99%
Cummulative Release % (8.15 h, Replicate 1): 18.09%
Cummulative Release % (8.30 h, Replicate 2): 19.34%
Cummulative Release % (8.45 h, Replicate 3): 19.77%
Cummulative Release % (9.07 h, Replicate 1): 20.00%
Cummulative Release % (9.23 h, Replicate 2): 21.33%
Cummulative Release % (9.38 h, Replicate 3): 21.63%
Cummulative Release % (10.00 h, Replicate 1): 22.23%
Cummulative Release % (10.15 h, Replicate 2): 23.21%
Cummulative Release % (10.30 h, Replicate 3): 23.50%
Cummulative Release % (10.92 h, Replicate 1): 23.70%
Cummulative Release % (11.08 h, Replicate 2): 25.81%
Cummulative Release % (11.23 h, Replicate 3): 25.99%
Cummulative Release % (11.85 h, Replicate 1): 25.62%
Cummulative Release % (12.00 h, Replicate 2): 26.79%
Cummulative Release % (12.15 h, Replicate 3): 27.44%
Cummulative Release % (12.77 h, Replicate 1): 27.74%
Cummulative Release % (12.93 h, Replicate 2): 29.41%
Cummulative Release % (13.08 h, Replicate 3): 29.66%
Cummulative Release % (13.70 h, Replicate 1): 29.02%
Cummulative Release % (13.85 h, Replicate 2): 30.77%
Cummulative Release % (14.00 h, Replicate 3): 31.43%
Cummulative Release % (14.63 h, Replicate 1): 30.82%
Cummulative Release % (14.78 h, Replicate 2): 32.39%
Cummulative Release % (14.93 h, Replicate 3): 33.56%
Cummulative Release % (15.55 h, Replicate 1): 32.52%
Cummulative Release % (15.70 h, Replicate 2): 34.45%
Cummulative Release % (15.85 h, Replicate 3): 35.54%
Cummulative Release % (16.48 h, Replicate 1): 34.39%
Cummulative Release % (16.63 h, Replicate 2): 35.86%
Cummulative Release % (16.78 h, Replicate 3): 36.74%
Cummulative Release % (17.40 h, Replicate 1): 35.32%
Cummulative Release % (17.55 h, Replicate 2): 37.92%
Cummulative Release % (17.71 h, Replicate 3): 39.37%
Cummulative Release % (18.33 h, Replicate 1): 37.81%
Cummulative Release % (18.48 h, Replicate 2): 39.44%
Cummulative Release % (18.63 h, Replicate 3): 41.92%
Cummulative Release % (19.25 h, Replicate 1): 40.42%
